The source of these data is patent US20180009867A1.

For the experiment, the target named is IL-1 receptor. Description: SPR, immobilized IL-1 receptor. (In general: In SPR one partner is held on a chip, and binding of the other changes the refractive index at the surface.)
On to “wild-type chicken interleukin-1β (ligand)”, for which the Kd was found to be 120 pM. In other words, the sub-nanomolar range.

The substance “mutant chicken interleukin-1β protein having E118K mutation (ligand)” had a Kd of 370 pM. This Kd lies about 3.1-fold higher than the previous one. On to “mutant chicken interleukin-1β protein having T117A mutation (ligand)”, for which the Kd stood at 230 pM.

The Kd is the equilibrium constant for the complex coming apart.
